Data reported in patent publication US20220204930A1 (KITE PHARMA, published 2022).
One block for each binder: values may come before it.

Key:
[1] = biological target: T1, recombinant PSMA (rPSMA) containing a 6x His tag (human, UniProt Q04609 44-750); assay: flow cytometry, rPSMA-6xHis + anti-His; synNotch/CAR-payload T cells without myc beads (CAR not induced); donor #3
T1 construct: Soluble staining reagent, detected with an anti-His antibody; also called prostate-specific membrane antigen
Experimental: (§1) Seven days after transduction, T cells transduced as described in example 1 were harvested to determine transduction efficiencies. 1.5×10⁵ T cells were plated in 96 well plates in duplicate. For canonical CAR T cells, T cells were cultured overnight in hTCM (human T cell media), that included of x-vivo 15 (Lonza (Basel, Switzerland)), 5% human serum (Valley Biomedical (Winchester, Va.)), and 1% Glutamax (Gibco). For synNotch T receptor expressing cells, the T cells were cultured in the presence and absence of myc beads overnight to stimulate the synNotch receptor and therebyinduce CAR expression. After overnight culture, CAR expression was measured using recombinant PSMA (rPSMA) containing a 6× His tag (SEQ ID NO: 260). The cells were stained with an anti-His antibody and the stained cells were detected via flow cytometry. Only cells bound by the rPSMA (and anti-His) are detected to measure expression.

[2] = biological target: T1, recombinant PSMA (rPSMA) containing a …; assay: flow cytometry, rPSMA-6xHis + anti-His; synNotch/CAR-payload T cells without myc beads (CAR not induced); donor #1
[3] = biological target: T1, recombinant PSMA (rPSMA) containing a …; assay: flow cytometry of canonical CAR T cells stained with rPSMA-6xHis and anti-His; donor #1
Experimental: as §1

T1 sequence (Q04609 other isoform, or with tags, fused parts or gaps limits assumed): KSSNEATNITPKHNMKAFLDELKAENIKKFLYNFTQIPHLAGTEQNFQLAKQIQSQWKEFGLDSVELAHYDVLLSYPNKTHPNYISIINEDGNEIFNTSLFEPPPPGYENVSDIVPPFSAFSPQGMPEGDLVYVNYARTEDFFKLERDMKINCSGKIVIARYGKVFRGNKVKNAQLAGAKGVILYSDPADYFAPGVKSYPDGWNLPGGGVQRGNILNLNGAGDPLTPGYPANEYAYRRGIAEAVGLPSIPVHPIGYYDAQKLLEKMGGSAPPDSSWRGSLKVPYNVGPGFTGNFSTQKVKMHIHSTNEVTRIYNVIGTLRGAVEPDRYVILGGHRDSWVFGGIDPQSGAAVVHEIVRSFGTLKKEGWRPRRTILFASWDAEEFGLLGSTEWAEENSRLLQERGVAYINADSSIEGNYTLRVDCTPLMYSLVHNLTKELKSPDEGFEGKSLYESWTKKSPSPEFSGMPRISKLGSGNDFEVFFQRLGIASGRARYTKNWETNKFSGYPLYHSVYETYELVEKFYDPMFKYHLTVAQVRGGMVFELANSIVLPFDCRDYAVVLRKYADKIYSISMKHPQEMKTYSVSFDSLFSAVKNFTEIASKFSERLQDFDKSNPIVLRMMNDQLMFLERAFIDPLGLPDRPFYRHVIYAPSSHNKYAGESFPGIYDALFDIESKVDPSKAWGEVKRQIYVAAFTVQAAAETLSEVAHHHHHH

% CAR+ (Unstimulated) [1]: 1.4%
B1: anti-PSMA CAR with Ab2 scFv (other)
chain: DIQMTQSPSSLSASVGDRVTVTCRASQNVNTNVAWYQQKPGKAPKVLIYSASYRNSGVPSRFSGSGSGTDFTLTISSVQPEDFATYYCQQYNSYPFTFGQGTKLEIKGSTSGSGKPGSGEGSTKGQVQLVQSGAEVKKPGASVKLSCKASGYTFTTYWMHWVRQAPGQGLEWIGMIHPNSGSTNYAQKFQGRATLTVDTSTSTAYMELSSLRSEDTAVYYCARDPYDYGEDFDVWGQGTTVTVSS
notes: Chimeric antigen receptor on the surface of transduced human T cells, expressed from the GAL4-inducible payload vector; also called construct 202; Ab6 SynNotch/202; not shown: CD8a hinge, CD8a transmembrane, 4-1BB and CD3zeta domains

% CAR+ (Unstimulated) [2]: 3.2% | % CAR+ (Unstimulated) [1]: 4.6%
B2: anti-PSMA CAR with Ab3 scFv (other)
chain: EVQLVESGGGLVQPGGSMRLSCAASGFTFSDYYMAWVRQAPGKGLEWVANINYDGTSTYYADSLKGRFTISRDSSKNTLYLQMNSLRAEDTAVYYCARALDGYYGYLDVWGQGTTVTVSSGSTSGSGKPGSGEGSTKGDIQLTQSPSSLSASVGDRVTLTCRASQSISNNLHWYQQKPGKAPKLLIKYVSQSISGIPSRFSGSGLGTDFTLTISSVQPEDFATYYCQQSNSWPYTFGQGTKLEIK
notes: Chimeric antigen receptor on the surface of transduced human T cells; Constructs 103 (constitutive) and 203 (inducible payload) are treated as the same CAR protein; also called construct 103; construct 203; not shown: CD8a hinge, CD8a transmembrane, 4-1BB and CD3zeta domains

% CAR+ (Unstimulated) [2]: 3.7% | % CAR+ [3]: 95.4% | % CAR+ (Unstimulated) [1]: 6.2%
B3: anti-PSMA CAR with Ab1 scFv (other)
chain: DIQLTQSPSSLSASVGDRVTITCRASSSVSHIYWYQQKPGKAPKPWIYRTSNLASGVPSRFSGSGSGTDYTLTISSLQPEDFATYYCQQYHTYPPTFGQGTKLEIKGSTSGSGKPGSGEGSTKGEVQLVESGGGLVQPGGSMRLSCAASGFTFSDYYMAWVRQAPGKGLEWIANINYDGSNTYYADSLKGRFTISRDNSKNTLYLQMNSLRAEDTAVYYCARNWDGYYGYFDVWGQGTTVTVSS
notes: Chimeric antigen receptor on the surface of transduced human T cells; Construct 101 is the constitutive EF1a vector and 201 the GAL4-inducible payload vector; also called Abl; construct 101; not shown: CD8a hinge, CD8a transmembrane, 4-1BB and CD3zeta domains
